Data set [1] deals with HeLa Kyoto. In words: solubility in G1/S (NP-40 vs SDS abundance) (log2 ratio); higher = more soluble. Conditions: cell cycle stage: G1/S.
The subject of data set [2] is HeLa Kyoto. Briefly: solubility change mitosis vs G1/S (difference of NP-40 vs SDS log2 ratios) (log2 ratio difference); higher = more soluble in mitosis.
Data set [3] has as its system HeLa Kyoto. In words: thermal stability score vs G1/S (z-score of summed log2 fold changes over temperatures); higher = more thermally stable than in G1/S.
Where [4] appears, read: cell cycle stage: early G1 (4.5 h after nocodazole release).

Consider six sequences from the supplement of paper PMC5998384.
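Throughout, for solubility change mitosis vs G1/S (difference of NP-40 vs SDS log2 ratios): synchronized HeLa Kyoto cells (double thymidine block for G1/S, nocodazole release for mitosis), protein amounts in NP-40 versus SDS lysates quantified by mass spectrometry, three biological replicates.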
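Throughout, for solubility in G1/S (NP-40 vs SDS abundance): HeLa Kyoto cells arrested at G1/S by double thymidine block, proteins quantified by TMT10plex mass spectrometry in mild NP-40 versus SDS extracts, three biological replicates.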
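Throughout, for thermal stability score vs G1/S (z-score of summed log2 fold changes over temperatures): synchronized HeLa Kyoto cells, proteins quantified by TMT10plex mass spectrometry, three biological replicates, mitosis taken 0.5 h after nocodazole release, G1/S directly after double thymidine block.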

Regarding “MTTEQRRSLQAFQDYIRKTLDPTYILSYMAPWFREEEVQYIQAEKNNKGPMEAATLFLKFLLELQEEGWFRGFLDALDHAGYSGLYEAIESWDFKKIEKLEEYRLLLKRLQPEFKTRIIPTDIISDLSECLINQECEEILQICSTKGMMAGAEKLVECLLRSDKENWPKTLKLALEKERNKFSELWIVEKGIKDVETEDLEDKMETSDIQIFYQEDPECQNLSENSCPPSEVSDTNLYSPFKPRNYQLELALPAMKGKNTIICAPTGCGKTFVSLLICEHHLKKFPQGQKGKVVFFANQIPVYEQQKSVFSKYFERHGYRVTGISGATAENVPVEQIVENNDIIILTPQILVNNLKKGTIPSLSIFTLMIFDECHNTSKQHPYNMIMFNYLDQKLGGSSGPLPQVIGLTASVGVGDAKNTDEALDYICKLCASLDASVIATVKHNLEELEQVVYKPQKFFRKVESRISDKFKYIIAQLMRDTESLAKRICKDLENLSQIQNREFGTQKYEQWIVTVQKACMVFQMPDKDEESRICKALFLYTSHLRKYNDALIISEHARMKDALDYLKDFFSNVRAAGFDEIEQDLTQRFEEKLQELESVSRDPSNENPKLEDLCFILQEEYHLNPETITILFVKTRALVDALKNWIEGNPKLSFLKPGILTGRGKTNQNTGMTLPAQKCILDAFKASGDHNILIATSVADEGIDIAQCNLVILYEYVGNVIKMIQTRGRGRARGSKCFLLTSNAGVIEKEQINMYKEKMMNDSILRLQTWDEAVFREKILHIQTHEKFIRDSQEKPKPVPDKENKKLLCRKCKALACYTADVRVIEECHYTVLGDAFKECFVSRPHPKPKQFSSFEKRAKIFCARQNCSHDWGIHVKYKTFEIPVIKIESFVVEDIATGVQTLYSKWKDFHFEKIPFDPAEMSK [DDX58]”, in the data set on HeLa Kyoto [1], the “solubility in G1/S (log2)” value was -0.211. Further, in the data set with HeLa Kyoto [2], the “solubility change mitosis (log2)” value is -0.199. Besides, the thermal stability score is 0.775 with HeLa Kyoto [3] (setting [4]) and 0.756 with HeLa Kyoto [3] (cell cycle stage: mitosis).
As to “MAASRLELNLVRLLSRCEAMAAEKRDPDEWRLEKYVGALEDMLQALKVHASKPASEVINEYSWKVDFLKGMLQAEKLTSSSEKALANQFLAPGRVPTTARERVPATKTVHLQSRARYTSEMRSELLGTDSAEPEMDVRKRTGVAGSQPVSEKQLAAELDLVLQRHQNLQEKLAEEMLGLARSLKTNTLAAQSVIKKDNQTLSHSLKMADQNLEKLKTESERLEQHTQKSVNWLLWAMLIIVCFIFISMILFIRIMPKLK [USE1]”, the “solubility in G1/S (log2)” value in the data set with HeLa Kyoto [1] turned out to be 0.00595. For the same sequence, the “solubility change mitosis (log2)” value with HeLa Kyoto [2] was -0.0501. In addition, the thermal stability score with HeLa Kyoto [3] (setting [4]) was 0.334; in the data set on HeLa Kyoto [3] (cell cycle stage: mitosis) it was 0.48.
For the sequence “MSYYQRPFSPSAYSLPASLNSSIVMQHGTSLDSTDTYPQHAQSLDGTTSSSIPLYRSSEEEKRVTVIKAPHYPGIGPVDESGIPTAIRTTVDRPKDWYKTMFKQIHMVHKPDDDTDMYNTPYTYNAGLYNPPYSAQSHPAAKTQTYRPLSKSHSDNSPNAFKDASSPVPPPHVPPPVPPLRPRDRSSTEKHDWDPPDRKVDTRKFRSEPRSIFEYEPGKSSILQHERPASLYQSSIDRSLERPMSSASMASDFRKRRKSEPAVGPPRGLGDQSASRTSPGRVDLPGSSTTLTKSFTSSSPSSPSRAKGGDDSKICPSLCSYSGLNGNPSSELDYCSTYRQHLDVPRDSPRAISFKNGWQMARQNAEIWSSTEETVSPKIKSRSCDDLLNDDCDSFPDPKVKSESMGSLLCEEDSKESCPMAWGSPYVPEVRSNGRSRIRHRSARNAPGFLKMYKKMHRINRKDLMNSEVICSVKSRILQYESEQQHKDLLRAWSQCSTEEVPRDMVPTRISEFEKLIQKSKSMPNLGDDMLSPVTLEPPQNGLCPKRRFSIEYLLEEENQSGPPARGRRGCQSNALVPIHIEVTSDEQPRAHVEFSDSDQDGVVSDHSDYIHLEGSSFCSESDFDHFSFTSSESFYGSSHHHHHHHHHHHRHLISSCKGRCPASYTRFTTMLKHERARHENTEEPRRQEMDPGLSKLAFLVSPVPFRRKKNSAPKKQTEKAKCKASVFEALDSALKDICDQIKAEKKRGSLPDNSILHRLISELLPDVPERNSSLRALRRSPLHQPLHPLPPDGAIHCPPYQNDCGRMPRSASFQDVDTANSSCHHQDRGGALQDRESPRSYSSTLTDMGRSAPRERRGTPEKEKLPAKAVYDFKAQTSKELSFKKGDTVYILRKIDQNWYEGEHHGRVGIFPISYVEKLTPPEKAQPARPPPPAQPGEIGEAIAKYNFNADTNVELSLRKGDRVILLKRVDQNWYEGKIPGTNRQGIFPVSYVEVVKKNTKGAEDYPDPPIPHSYSSDRIHSLSSNKPQRPVFTHENIQGGGEPFQALYNYTPRNEDELELRESDVIDVMEKCDDGWFVGTSRRTKFFGTFPGNYVKRL [SORBS2]”, in the data set with HeLa Kyoto [1], the “solubility in G1/S (log2)” value was -0.773. The “solubility change mitosis (log2)” value with HeLa Kyoto [2] worked out at 0.819. Besides, the results for the thermal stability score in the data set with HeLa Kyoto [3] (setting [4]) and in the data set with HeLa Kyoto [3] (cell cycle stage: mitosis) were -2.13 and 0.899, respectively.
Take “MWHEARKHERKLRGMMVDYKKRAERRREYYEKIKKDPAQFLQVHGRACKVHLDSAVALAAESPVNMMPWQGDTNNMIDRFDVRAHLDHIPDYTPPLLTTISPEQESDERKCNYERYRGLVQNDFAGISEEQCLYQIYIDELYGGLQRPSEDEKKKLAEKKASIGYTYEDSTVAEVEKAAEKPEEEESAAEEESNSDEDEVIPDIDVEVDVDELNQEQVADLNKQATTYGMADGDFVRMLRKDKEEAEAIKHAKALEEEKAMYSGRRSRRQRREFREKRLRGRKISPPSYARRDSPTYDPYKRSPSESSSESRSRSRSPTPGREEKITFITSFGGSDEEAAAAAAAAAASGVTTGKPPAPPQPGGPAPGRNASARRRSSSSSSSSSASRTSSSRSSSRSSSRSRRGGGYYRSGRHARSRSRSWSRSRSRSRRYSRSRSRGRRHSGGGSRDGHRYSRSPARRGGYGPRRRSRSRSHSGDRYRRGGRGLRHHSSSRSRSSWSLSPSRSRSLTRSRSHSPSPSQSRSRSRSRSQSPSPSPAREKLTRPAASPAVGEKLKKTEPAAGKETGAAKPKLTPQEKLKLRMQKALNRQFKADKKAAQEKMIQQEHERQEREDELRAMARKIRMKERERREKEREEWERQYSRQSRSPSPRYSREYSSSRRRSRSRSRSPHYRH [CLASRP]”: the “solubility in G1/S (log2)” value in the data set on HeLa Kyoto [1] is -0.572. In addition, the “solubility change mitosis (log2)” value in the data set with HeLa Kyoto [2] came to 0.526. Moreover, the thermal stability score in the data set on HeLa Kyoto [3] (setting [4]) was determined as 0.728; in the data set with HeLa Kyoto [3] (cell cycle stage: mitosis), 0.776.
Turning to “METRYNLKSPAVKRLMKEAAELKDPTDHYHAQPLEDNLFEWHFTVRGPPDSDFDGGVYHGRIVLPPEYPMKPPSIILLTANGRFEVGKKICLSISGHHPETWQPSWSIRTALLAIIGFMPTKGEGAIGSLDYTPEERRALAKKSQDFCCEGCGSAMKDVLLPLKSGSDSSQADQEAKELARQISFKAEVNSSGKTISESDLNHSFSLTDLQDDIPTTFQGATASTSYGLQNSSAASFHQPTQPVAKNTSMSPRQRRAQQQSQRRLSTSPDVIQGHQPRDNHTDHGGSAVLIVILTLALAALIFRRIYLANEYIFDFEL [UBE2J1]”, in the data set on HeLa Kyoto [1], the “solubility in G1/S (log2)” value amounted to 0.222. Also, the “solubility change mitosis (log2)” value in the data set on HeLa Kyoto [2] turned out to be 0.00691. Also, the thermal stability score in the data set with HeLa Kyoto [3] (setting [4]) is -0.0441; with HeLa Kyoto [3] (cell cycle stage: mitosis), 1.77.
For “MLVGQGAGLLGPAVVTAAVVLLLSGVGPAHGSEDIVVGCGGFVKSDVEINYSLIEIKLYTKHGTLKYQTDCAPNNGYFMIPLYDKGDFILKIEPPLGWSFEPTTVELHVDGVSDICTKGGDINFVFTGFSVNGKVLSKGQPLGPAGVQVSLRNTGTEAKIQSTVTQPGGKFAFFKVLPGDYEILATHPTWALKEASTTVRVTNSNANAASPLIVAGYNVSGSVRSDGEPMKGVKFLLFSSLVTKEDVLGCNVSPVPGFQPQDESLVYLCYTVSREDGSFSFYSLPSGGYTVIPFYRGERITFDVAPSRLDFTVEHDSLKIEPVFHVMGFSVTGRVLNGPEGDGVPEAVVTLNNQIKVKTKADGSFRLENITTGTYTIHAQKEHLYFETVTIKIAPNTPQLADIVATGFSVCGRISIIRFPDTVKQMNKYKVVLSSQDKDKSLVTVETDAHGSFCFKAKPGTYKVQVMVPEAETRAGLTLKPQTFPLTVTDRPVMDVAFVQFLASVSGKVSCLDTCGDLLVTLQSLSRQGEKRSLQLSGKVNAMTFTFDNVLPGKYKISIMHEDWCWKNKSLEVEVLEDDVSAVEFRQTGYMLRCSLSHAITLEFYQDGNGRENVGIYNLSKGVNRFCLSKPGVYKVTPRSCHRFEQAFYTYDTSSPSILTLTAIRHHVLGTITTDKMMDVTVTIKSSIDSEPALVLGPLKSVQELRREQQLAEIEARRQEREKNGNEEGEERMTKPPVQEMVDELQGPFSYDFSYWARSGEKITVTPSSKELLFYPPSMEAVVSGESCPGKLIEIHGKAGLFLEGQIHPELEGVEIVISEKGASSPLITVFTDDKGAYSVGPLHSDLEYTVTSQKEGYVLTAVEGTIGDFKAYALAGVSFEIKAEDDQPLPGVLLSLSGGLFRSNLLTQDNGILTFSNLSPGQYYFKPMMKEFRFEPSSQMIEVQEGQNLKITITGYRTAYSCYGTVSSLNGEPEQGVAMEAVGQNDCSIYGEDTVTDEEGKFRLRGLLPGCVYHVQLKAEGNDHIERALPHHRVIEVGNNDIDDVNIIVFRQINQFDLSGNVITSSEYLPTLWVKLYKSENLDNPIQTVSLGQSLFFHFPPLLRDGENYVVLLDSTLPRSQYDYILPQVSFTAVGYHKHITLIFNPTRKLPEQDIAQGSYIALPLTLLVLLAGYNHDKLIPLLLQLTSRLQGVGALGQAASDNSGPEDAKRQAKKQKTRRTLRLQEEFQLMWCLVPWRGTLGIHLFSSLPFASEILLETTATCIHY [NOMO2]”, in that order: -0.0617, -0.136, -0.17 and -0.401.
